Results: IntAct's records for PubMed 18547146

B1: BH3-interacting domain death agonist (Mus musculus), P70444 (parent)
chain: MDSEVSNGSGLGAEHITDLLVFGFLQSSGCTRQELEVLGRELPVQAYWEADLEDELQTDGSQASRSFNQGRIEPDSESQEEIIHNIARHLAQIGDEMDHNIQPTLVRQLAAQFMNGSLSEEDKRNCLAKALDEVKTAFPRDMENDKAMLIMTMLLAKKVASHAPSLLRDVFHTTVNFINQNLFSYVRNLVRNEMD

Variants of: B1
Settings: with BCL2L1, Q07817-1
Chain of BCL2L1, Q07817-1 (Q07817 whole entry): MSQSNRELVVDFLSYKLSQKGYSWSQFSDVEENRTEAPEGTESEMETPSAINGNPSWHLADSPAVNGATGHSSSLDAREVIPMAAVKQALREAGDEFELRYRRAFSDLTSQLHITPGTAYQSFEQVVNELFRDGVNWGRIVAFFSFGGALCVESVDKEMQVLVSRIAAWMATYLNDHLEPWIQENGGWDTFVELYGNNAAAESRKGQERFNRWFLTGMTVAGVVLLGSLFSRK

| Variant | effect of a mutation on the interaction |
| --- | --- |
| MDSEVSNGSGLGAEHITDLLVFGFLQSSGCTRQELEVLGRELPVQAYWEADLEDELQTDGSQASRSFNQGRIEPDSESQEEIIHNIARHLAQIGDEAAHNIQPTLVRQLAAQFMNGSLSEEDKRNCLAKALDEVKTAFPRDMENDKAMLIMTMLLAKKVASHAPSLLRDVFHTTVNFINQNLFSYVRNLVRNEMD [M97A;D98A] | disrupting interaction |
